Laboratory results: publication doi:10.1101/2024.07.30.605930 (bioRxiv, 2024)
Several values for one entry are separate records, joined by “and”; a condition that tells them apart may be missing. Identical values can stand only once.

Legend:
[1] = biological target: the molecule itself; assay: negative-stain EM
[2] = biological target: the molecule itself; assay: cryo-EM structure

| Protein | binding result [1] | stoichiometry N [2] |
| --- | --- | --- |
| FliF(Δ214–220) (natural protein, Salmonella enterica serovar Typhimurium) MSATASTATQPKPLEWLNRLRANPRIPLIVAGSAAVAIVVAMVLWAKTPDYRTLFSNLSDQDGGAIVAQLTQMNIPYRFANGSGAIEVPADKVHELRLRLAQQGLPKGGAVGFELLDQEKFGISQFSEQVNYQRALEGELARTIETLGPVKSARVHLAMPKPSLFVREQKSPSASVTVTLEPGRALDEGQISAVVHLVSSAVAGLPPGNVTLVTQSNTSGRDLNDAQLKFANDVESRIQRRIEAILSPIVGNGNVHAQVTAQLDFANKEQTEEHYSPNGDASKATLRSRQLNISEQVGAGYPGGVPGALSNQPAPPNEAPIATPPTNQQNAQNTPQTSTSTNSNSAGPRSTQRNETSNYEVDRTIRHTKMNVGDIERLSVAVVVNYKTLADGKPLPLTADQMKQIEDLTREAMGFSDKRGDTLNVVNSPFSAVDNTGGELPFWQQQSFIDQLLAAGRWLLVLVVAWILWRKAVRPQLTRRVEEAKAAQEQAQVRQETEEAVEVRLSKDEQLQQRRANQRLGAEVMSQRIREMSDNDPRVVALVIRQWMSNDHE | binds | – |
| FliFΔ(221–227) (natural protein, Salmonella enterica serovar Typhimurium) MSATASTATQPKPLEWLNRLRANPRIPLIVAGSAAVAIVVAMVLWAKTPDYRTLFSNLSDQDGGAIVAQLTQMNIPYRFANGSGAIEVPADKVHELRLRLAQQGLPKGGAVGFELLDQEKFGISQFSEQVNYQRALEGELARTIETLGPVKSARVHLAMPKPSLFVREQKSPSASVTVTLEPGRALDEGQISAVVHLVSSAVAGLPPGNVTLVDQSGHLLRDLNDAQLKFANDVESRIQRRIEAILSPIVGNGNVHAQVTAQLDFANKEQTEEHYSPNGDASKATLRSRQLNISEQVGAGYPGGVPGALSNQPAPPNEAPIATPPTNQQNAQNTPQTSTSTNSNSAGPRSTQRNETSNYEVDRTIRHTKMNVGDIERLSVAVVVNYKTLADGKPLPLTADQMKQIEDLTREAMGFSDKRGDTLNVVNSPFSAVDNTGGELPFWQQQSFIDQLLAAGRWLLVLVVAWILWRKAVRPQLTRRVEEAKAAQEQAQVRQETEEAVEVRLSKDEQLQQRRANQRLGAEVMSQRIREMSDNDPRVVALVIRQWMSNDHE | binds | – |
| FliF (natural protein, Salmonella enterica serovar Typhimurium, UniProt P15928 1-560, looked up) MSATASTATQPKPLEWLNRLRANPRIPLIVAGSAAVAIVVAMVLWAKTPDYRTLFSNLSDQDGGAIVAQLTQMNIPYRFANGSGAIEVPADKVHELRLRLAQQGLPKGGAVGFELLDQEKFGISQFSEQVNYQRALEGELARTIETLGPVKSARVHLAMPKPSLFVREQKSPSASVTVTLEPGRALDEGQISAVVHLVSSAVAGLPPGNVTLVDQSGHLLTQSNTSGRDLNDAQLKFANDVESRIQRRIEAILSPIVGNGNVHAQVTAQLDFANKEQTEEHYSPNGDASKATLRSRQLNISEQVGAGYPGGVPGALSNQPAPPNEAPIATPPTNQQNAQNTPQTSTSTNSNSAGPRSTQRNETSNYEVDRTIRHTKMNVGDIERLSVAVVVNYKTLADGKPLPLTADQMKQIEDLTREAMGFSDKRGDTLNVVNSPFSAVDNTGGELPFWQQQSFIDQLLAAGRWLLVLVVAWILWRKAVRPQLTRRVEEAKAAQEQAQVRQETEEAVEVRLSKDEQLQQRRANQRLGAEVMSQRIREMSDNDPRVVALVIRQWMSNDHE | – | 33 and 34 |
| FliF(G217W) (natural protein, Salmonella enterica serovar Typhimurium) MSATASTATQPKPLEWLNRLRANPRIPLIVAGSAAVAIVVAMVLWAKTPDYRTLFSNLSDQDGGAIVAQLTQMNIPYRFANGSGAIEVPADKVHELRLRLAQQGLPKGGAVGFELLDQEKFGISQFSEQVNYQRALEGELARTIETLGPVKSARVHLAMPKPSLFVREQKSPSASVTVTLEPGRALDEGQISAVVHLVSSAVAGLPPGNVTLVDQSWHLLTQSNTSGRDLNDAQLKFANDVESRIQRRIEAILSPIVGNGNVHAQVTAQLDFANKEQTEEHYSPNGDASKATLRSRQLNISEQVGAGYPGGVPGALSNQPAPPNEAPIATPPTNQQNAQNTPQTSTSTNSNSAGPRSTQRNETSNYEVDRTIRHTKMNVGDIERLSVAVVVNYKTLADGKPLPLTADQMKQIEDLTREAMGFSDKRGDTLNVVNSPFSAVDNTGGELPFWQQQSFIDQLLAAGRWLLVLVVAWILWRKAVRPQLTRRVEEAKAAQEQAQVRQETEEAVEVRLSKDEQLQQRRANQRLGAEVMSQRIREMSDNDPRVVALVIRQWMSNDHE | binds | – |
| FliF(G217P) (natural protein, Salmonella enterica serovar Typhimurium) MSATASTATQPKPLEWLNRLRANPRIPLIVAGSAAVAIVVAMVLWAKTPDYRTLFSNLSDQDGGAIVAQLTQMNIPYRFANGSGAIEVPADKVHELRLRLAQQGLPKGGAVGFELLDQEKFGISQFSEQVNYQRALEGELARTIETLGPVKSARVHLAMPKPSLFVREQKSPSASVTVTLEPGRALDEGQISAVVHLVSSAVAGLPPGNVTLVDQSPHLLTQSNTSGRDLNDAQLKFANDVESRIQRRIEAILSPIVGNGNVHAQVTAQLDFANKEQTEEHYSPNGDASKATLRSRQLNISEQVGAGYPGGVPGALSNQPAPPNEAPIATPPTNQQNAQNTPQTSTSTNSNSAGPRSTQRNETSNYEVDRTIRHTKMNVGDIERLSVAVVVNYKTLADGKPLPLTADQMKQIEDLTREAMGFSDKRGDTLNVVNSPFSAVDNTGGELPFWQQQSFIDQLLAAGRWLLVLVVAWILWRKAVRPQLTRRVEEAKAAQEQAQVRQETEEAVEVRLSKDEQLQQRRANQRLGAEVMSQRIREMSDNDPRVVALVIRQWMSNDHE | binds | – |
| FliF(G217A) (natural protein, Salmonella enterica serovar Typhimurium) MSATASTATQPKPLEWLNRLRANPRIPLIVAGSAAVAIVVAMVLWAKTPDYRTLFSNLSDQDGGAIVAQLTQMNIPYRFANGSGAIEVPADKVHELRLRLAQQGLPKGGAVGFELLDQEKFGISQFSEQVNYQRALEGELARTIETLGPVKSARVHLAMPKPSLFVREQKSPSASVTVTLEPGRALDEGQISAVVHLVSSAVAGLPPGNVTLVDQSAHLLTQSNTSGRDLNDAQLKFANDVESRIQRRIEAILSPIVGNGNVHAQVTAQLDFANKEQTEEHYSPNGDASKATLRSRQLNISEQVGAGYPGGVPGALSNQPAPPNEAPIATPPTNQQNAQNTPQTSTSTNSNSAGPRSTQRNETSNYEVDRTIRHTKMNVGDIERLSVAVVVNYKTLADGKPLPLTADQMKQIEDLTREAMGFSDKRGDTLNVVNSPFSAVDNTGGELPFWQQQSFIDQLLAAGRWLLVLVVAWILWRKAVRPQLTRRVEEAKAAQEQAQVRQETEEAVEVRLSKDEQLQQRRANQRLGAEVMSQRIREMSDNDPRVVALVIRQWMSNDHE | binds | – |
| FliF(Δ165–167) (natural protein, Salmonella enterica serovar Typhimurium) MSATASTATQPKPLEWLNRLRANPRIPLIVAGSAAVAIVVAMVLWAKTPDYRTLFSNLSDQDGGAIVAQLTQMNIPYRFANGSGAIEVPADKVHELRLRLAQQGLPKGGAVGFELLDQEKFGISQFSEQVNYQRALEGELARTIETLGPVKSARVHLAMPKPSLEQKSPSASVTVTLEPGRALDEGQISAVVHLVSSAVAGLPPGNVTLVDQSGHLLTQSNTSGRDLNDAQLKFANDVESRIQRRIEAILSPIVGNGNVHAQVTAQLDFANKEQTEEHYSPNGDASKATLRSRQLNISEQVGAGYPGGVPGALSNQPAPPNEAPIATPPTNQQNAQNTPQTSTSTNSNSAGPRSTQRNETSNYEVDRTIRHTKMNVGDIERLSVAVVVNYKTLADGKPLPLTADQMKQIEDLTREAMGFSDKRGDTLNVVNSPFSAVDNTGGELPFWQQQSFIDQLLAAGRWLLVLVVAWILWRKAVRPQLTRRVEEAKAAQEQAQVRQETEEAVEVRLSKDEQLQQRRANQRLGAEVMSQRIREMSDNDPRVVALVIRQWMSNDHE | binds | – |
